{"source": "patent US20240385190A1", "about": "(EISAI R AND D MANAGEMENT, published 2024)", "binders": {"B1": {"name": "KPEP11_04 (antibody, V domains shown)", "VH": "QEQLKESGGRLVTPGGSLTLTCTVSGIDLSSYAMSWVRQAPEKGLEWIGFINMYGTYYASWAKGRFTISRTSTTVDLKVTSLTTEDTATYFCVRGGRSPDYDIVSGDIWGPGTLVTVSS", "VL": "YVMMTQTPSSVSEPVGGTVTIKCQASQNIYNSLAWYQQKPGQRPKLLIADASELASGVPQRFSGSGSGTQFTLTISDLECADAATYYCQSSSAGDSYVGGFGGGTEVVVKG", "notes": "Rabbit IgG/kappa; Used HRP-labeled as detection antibody in the sandwich ELISAs; also called anti-human EphA4 rabbit monoclonal antibody KPEP11_04; HRP-labeled KPEP11_04"}}, "key": {"FN1": {"molecular_target": "FN1", "test": "ELISA", "experimental": "(§1) For the anti-human EphA4 monoclonal antibodies produced in Example 1, evaluation of binding activity to various EphA4 was performed according to the following steps. Mouse anti-6-His antibodies (R&D) were coated on the wells of a 96-well plate (Thermo […]). After incubating at room temperature for 1 hour, the wells were blocked at room temperature for 1 hour with 1% Block Ace (KAC). After washing three times with 0.02% Tween 20/PBS, the wells were seeded with human EphA4 extracellular domain-MBP-His protein, human EphA4 ligand binding domain-MBP-His protein, human EphA4 fibronectin III-type domain 1-MBP-His protein, human EphA4 fibronectin III-type domain 2-MBP-His protein, or MBP-His protein (final concentration 1 nM), and this was incubated at room temperature for 1 hour. After washing three times, anti-human EphA4 rabbit monoclonal antibody (10 pg/mL) was added, and this was incubated at room temperature for 1 hour. After washing three times, horseradish peroxidase labeled goat anti-rabbit IgG polyclonal antibody (abcam) was added, and this was incubated at room temperature for 1 hour. After washing three times, TMBZ (3,3′,5,5′-tetramethylbenzidine, KPL) solution was added to the wells, and this was incubated for four and a half minutes at room temperature. Equal amounts of quenching solution (2 N H₂SO₄, FUJIFILM Wako) were added to the wells, and absorbance at 450 nm and 650 nm were read with a microplate reader (Thermo […])."}, "[1]": {"molecular_target": "T1, human EphA4 extracellular domain-MBP-His protein (human)", "T1 construct": "also called human EphA4 extracellular domain (ECD); Human EphA4 extracellular domain-MBP-His 10", "test": "ELISA", "experimental": "as §1"}, "FN2": {"molecular_target": "FN2", "test": "ELISA", "experimental": "as §1"}, "MBP": {"molecular_target": "MBP", "test": "ELISA", "experimental": "as §1"}, "[2]": {"molecular_target": "human EphA4 ligand binding domain-MBP-His protein (human, UniProt P54764 20-209; P0AEX9 29-392 = MBP)", "test": "ELISA", "experimental": "as §1"}, "[3]": {"molecular_target": "T2, human EphA4 extracellular domain-SEAP-His protein (human)", "T2 sequence (chain, as listed by the source limits assumed)": "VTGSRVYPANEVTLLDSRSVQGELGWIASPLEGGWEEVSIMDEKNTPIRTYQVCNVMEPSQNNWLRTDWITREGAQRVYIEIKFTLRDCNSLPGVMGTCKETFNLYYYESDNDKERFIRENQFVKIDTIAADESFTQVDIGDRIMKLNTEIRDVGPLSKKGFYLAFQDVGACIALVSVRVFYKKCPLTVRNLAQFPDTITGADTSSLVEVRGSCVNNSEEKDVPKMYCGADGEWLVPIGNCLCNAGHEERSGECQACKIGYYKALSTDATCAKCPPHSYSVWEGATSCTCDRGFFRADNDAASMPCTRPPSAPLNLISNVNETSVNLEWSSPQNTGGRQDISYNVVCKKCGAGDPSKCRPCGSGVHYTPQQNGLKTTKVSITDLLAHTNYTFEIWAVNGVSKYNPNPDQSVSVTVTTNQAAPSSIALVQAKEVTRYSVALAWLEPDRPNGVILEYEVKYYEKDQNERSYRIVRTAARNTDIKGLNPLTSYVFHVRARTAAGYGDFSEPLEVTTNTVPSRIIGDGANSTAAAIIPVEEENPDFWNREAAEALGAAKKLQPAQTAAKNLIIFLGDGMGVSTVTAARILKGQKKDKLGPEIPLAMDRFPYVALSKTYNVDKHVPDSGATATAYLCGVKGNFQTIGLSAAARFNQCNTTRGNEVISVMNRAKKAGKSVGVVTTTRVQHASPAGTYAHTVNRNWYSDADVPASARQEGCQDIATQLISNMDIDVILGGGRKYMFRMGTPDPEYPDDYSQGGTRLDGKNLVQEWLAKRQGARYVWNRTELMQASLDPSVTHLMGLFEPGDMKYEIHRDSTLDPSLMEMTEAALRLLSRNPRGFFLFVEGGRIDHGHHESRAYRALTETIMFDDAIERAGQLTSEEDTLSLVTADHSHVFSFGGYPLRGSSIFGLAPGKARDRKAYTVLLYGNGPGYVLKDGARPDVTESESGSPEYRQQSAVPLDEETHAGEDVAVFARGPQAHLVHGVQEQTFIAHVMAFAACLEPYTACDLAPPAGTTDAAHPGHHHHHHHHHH", "test": "ELISA", "experimental": "(§2) For the anti-human EphA4 monoclonal antibodies produced in Example 1, evaluation of binding activity to various EphA4 was performed according to the following steps. Mouse anti-6-His antibodies (R&D) were coated on the wells of a 96-well plate (Thermo […]). After incubating at room temperature for 1 hour, the wells were blocked at 4° C. overnight with 1% Block Ace (KAC). After washing three times with 0.02% Tween 20/PBS, the wells were seeded with mouse EphA4 extracellular domain-SEAP-His protein, rat EphA4 extracellular domain-SEAP-His protein, rabbit EphA4 extracellular domain-SEAP-His protein, monkey EphA4 extracellular domain-SEAP-His protein, human EphA4 extracellular domain-SEAP-His protein, or SEAP-His protein (final concentration 1 nM), and this was incubated at room temperature for 1 hour. After washing three times, anti-human EphA4 rabbit monoclonal antibody (10 pg/mL) was added, and this was incubated at room temperature for about 1 hour. After washing three times, horseradish peroxidase labeled goat anti-rabbit IgG polyclonal antibody (abcam) was added, and this was incubated at room temperature for 1 hour. After washing three times, TMBZ (3,3′,5,5′-tetramethylbenzidine, KPL) solution was added to the wells, and this was incubated for 3 minutes at room temperature. Equal amounts of quenching solution (2 N H₂SO₄, FUJIFILM Wako) were added to the wells, and absorbance at 450 nm and 650 nm were read with a microplate reader (Thermo […])."}, "SEAP": {"molecular_target": "T3, SEAP", "T3 construct": "negative control antigen; also called SEAP-His protein", "test": "ELISA", "experimental": "as §2"}, "[4]": {"molecular_target": "T4, monkey EphA4 extracellular domain-SEAP-His protein (monkey)", "T4 construct": "the fusion as a whole has none; not shown: SEAP-His part", "T4 sequence (chain, as listed by the source)": "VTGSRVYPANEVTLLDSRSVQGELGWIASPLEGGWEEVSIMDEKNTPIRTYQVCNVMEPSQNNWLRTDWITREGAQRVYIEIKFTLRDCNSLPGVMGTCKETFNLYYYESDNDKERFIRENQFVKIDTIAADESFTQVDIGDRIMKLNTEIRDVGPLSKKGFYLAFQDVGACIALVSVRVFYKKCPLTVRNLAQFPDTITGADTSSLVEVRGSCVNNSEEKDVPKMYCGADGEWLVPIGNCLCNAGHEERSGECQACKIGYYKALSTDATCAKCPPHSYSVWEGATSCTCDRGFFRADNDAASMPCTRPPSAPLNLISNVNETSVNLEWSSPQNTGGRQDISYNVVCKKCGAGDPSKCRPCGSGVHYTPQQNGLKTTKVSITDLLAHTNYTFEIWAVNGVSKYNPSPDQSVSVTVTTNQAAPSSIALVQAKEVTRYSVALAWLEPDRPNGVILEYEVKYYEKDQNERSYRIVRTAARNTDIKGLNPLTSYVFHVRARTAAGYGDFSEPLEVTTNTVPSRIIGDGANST", "test": "ELISA", "experimental": "as §2"}, "Mouse": {"molecular_target": "T5, Mouse", "T5 construct": "also called mouse EphA4 extracellular domain-SEAP-His protein", "test": "ELISA", "experimental": "as §2"}, "Rabbit": {"molecular_target": "T6, Rabbit", "T6 construct": "also called rabbit EphA4 extracellular domain-SEAP-His protein", "test": "ELISA", "experimental": "as §2"}, "Rat": {"molecular_target": "T7, Rat", "T7 construct": "also called rat EphA4 extracellular domain-SEAP-His protein", "test": "ELISA", "experimental": "as §2"}, "[5]": {"molecular_target": "T1, human EphA4 extracellular …", "test": "SPR Biacore T200, EphA4 ECD-MBP-His captured by anti-His antibody, antibody as analyte, 1:1 model, mean of three (exponent printed as -90, read as -09); mean of three experiments", "experimental": "(§3) The binding affinity of KPEP11_04, KPEP11_08, KPEP11_10, and KPEP11_18 against human EphA4 was determined by the surface plasmon resonance method (SPR method) employing Biacore T200 (Cytiva). First, an anti-His antibody (Cytiva, 28-9950-56) was diluted to 10 μg/mL with the immobilizing buffer (10 mM sodium acetate, pH 4.5), and immobilized onto a sensor chip CM5 according to the protocol attached to Biacore T200. Immobilization was performed by the amine coupling method employing N-hydroxysuccinimide (NHS) and N-ethyl-N′-(3-dimethylaminopropyl) carbodiimide hydrochloride salt (EDC), and ethanolamine was employed for blocking (sensor chips or immobilizing reagents were all from Cytiva). Human EphA4 extracellular domain-MBP-His 10 was diluted with a running buffer HBS-EP+ (Cytiva), and pumped onto a flow cell for 120 seconds to allow capturing (captured amount of about 3 RU). […] At the end of each observation, 10 mM glycine hydrochloric acid pH 1.5 (60 seconds) and 3 M MgCl₂ (30 seconds) were added to regenerate the sensor chips. Fitting analysis by the 1:1 binding model employing the BIA evaluation software attached to the system was performed against the binding reaction curves obtained to calculate the binding affinity against human EphA4 (KD=kd/ka). The experiment described above was carried out three times, and the mean was calculated for each parameter."}, "[6]": {"molecular_target": "T1, human EphA4 extracellular …", "test": "SPR Biacore T200, EphA4 ECD-MBP-His captured by anti-His antibody, antibody as analyte, 1:1 model", "experimental": "as §3"}, "[7]": {"molecular_target": "T1, human EphA4 extracellular …", "test": "SPR Biacore T200, EphA4 ECD-MBP-His captured by anti-His antibody, antibody as analyte, 1:1 model, mean of three", "experimental": "as §3"}, "[8]": {"molecular_target": "T2, human EphA4 extracellular …", "test": "ELISA", "remark": "listed apart in the source"}, "[9]": {"molecular_target": "T4, monkey EphA4 extracellular …", "test": "ELISA", "remark": "listed apart in the source"}}, "note": "Several values for one entry are separate records, joined by “and”; a condition that tells them apart may be missing. Identical values can stand only once."}
{"binder": "B1", "values": [{"measurement": "absorbance", "setting": "FN1", "value": 0.225}, {"measurement": "absorbance", "setting": "[1]", "value": 1.41}, {"measurement": "absorbance", "setting": "FN2", "value": 0.227}, {"measurement": "absorbance", "setting": "MBP", "value": 0.267}, {"measurement": "absorbance", "setting": "[2]", "value": 1.33}, {"measurement": "absorbance", "setting": "[3]", "value": 1.26}, {"measurement": "absorbance", "setting": "SEAP", "value": 0.05}, {"measurement": "absorbance", "setting": "[4]", "value": 1.21}, {"measurement": "absorbance", "setting": "Mouse", "value": 0.044}, {"measurement": "absorbance", "setting": "Rabbit", "value": 0.039}, {"measurement": "absorbance", "setting": "Rat", "value": 0.044}, {"measurement": "Kd", "setting": "[5]", "value": 1.9, "unit": "nM"}, {"measurement": "Kd", "setting": "[6]", "value": "1.72 nM and 2.12 nM and 1.87 nM"}, {"measurement": "koff", "setting": "[6]", "value": "0.004 s⁻¹ and 0.00378 s⁻¹ and 0.00389 s⁻¹"}, {"measurement": "kon", "setting": "[6]", "value": "2.33e+06 M⁻¹ s⁻¹ and 1.78e+06 M⁻¹ s⁻¹ and 2.08e+06 M⁻¹ s⁻¹"}, {"measurement": "koff", "setting": "[7]", "value": 0.00389, "unit": "s⁻¹"}, {"measurement": "kon", "setting": "[7]", "value": "2.06e+06", "unit": "M⁻¹ s⁻¹"}, {"measurement": "EC50 (read off the curve)", "setting": "[8]", "value": "~0.01", "unit": "nM"}, {"measurement": "EC50 (read off the curve)", "setting": "[9]", "value": "~0.01", "unit": "nM"}]}
